Experimental data: patent US20060228349A1 (published 2006)
Where a chain is given by its changes, count along the chain named.

Columns and labels:
biotin-Aβ1-20 = target: T1, biotin-Aβ1-20 (biotin (position not given)); assay: BIACORE, biotin-Aβ1-20 as antigen; column IgG1#1
T1 peptide: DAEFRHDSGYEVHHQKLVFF

Aβ1-20 peptide [1] = target: T2, Aβ1-20 peptide; assay: solution equilibrium titration, free IgG by ELISA, GraFit; SE 24.41
T2 peptide: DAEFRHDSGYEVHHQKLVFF

[2] = target: T3, Biotinylated ADDL preparations (bADDLs) (N-terminal biotin); assay: BIACORE, bADDL as antigen; column IgG1#1 (row shifted one column to the left)
T3 construct: Oligomer, number of copies not fixed; also called biotinylated ADDL antigen; high molecular weight 10% bADDL

Aβ12-28 peptide = target: T4, Aβ12-28 peptide; assay: competition dot blot with peptides
T4 peptide: VHHQKLVFFAEDVGSNK

Aβ1-12 peptide = target: T5, Aβ1-12 peptide; assay: competition dot blot with peptides
T5 peptide: DAEFRHDSGYEV

[3] = target: T6, amyloid beta (1-40) peptide; assay: solution equilibrium titration, free IgG by ELISA, GraFit; SE 5.05
T6 construct: Used as monomer-like control; also called Aβ1-40; monomer preparation

[4] = target: T7, Aβ-derived diffusible ligands (synthetic ADDLs), soluble oligomers of amyloid β1-42; assay: solution equilibrium titration, free IgG by ELISA, GraFit; SE 0.09
T7 construct: Oligomeric preparation of synthetic Aβ1-42 in DMSO/F12 (monomer, trimer, tetramer, 12-24mer on SDS-PAGE); number of copies not fixed; also called soluble Aβ oligomers

[5] = target: T8, ADDL fibril preparation (Aβ1-42 fibrils); assay: solution equilibrium titration, free IgG by ELISA, GraFit; SE 0.47
T8 construct: Fibrillar assembly; number of copies not fixed

[6] = target: T7, Aβ-derived diffusible ligands …; assay: solution equilibrium titration, free IgG by ELISA, GraFit; SE 1.63
[7] = target: T8, ADDL fibril preparation (Aβ1-42 fibrils); assay: solution equilibrium titration, free IgG by ELISA, GraFit; SE 5.78
Aβ1-20 peptide [8] = target: T2, Aβ1-20 peptide; assay: solution equilibrium titration, free IgG by ELISA, GraFit; SE 4.39
[9] = target: T6, amyloid beta (1-40) peptide; assay: solution equilibrium titration, free IgG by ELISA, GraFit; SE 6.21
Aβ1-20 peptide [10] = target: T2, Aβ1-20 peptide; assay: solution equilibrium titration, free IgG by ELISA, GraFit; SE 7.07
[11] = target: T8, ADDL fibril preparation (Aβ1-42 fibrils); assay: solution equilibrium titration, free IgG by ELISA, GraFit; SE 2.40
[12] = target: T6, amyloid beta (1-40) peptide; assay: solution equilibrium titration, free IgG by ELISA, GraFit; SE 5.84
[13] = target: T7, Aβ-derived diffusible ligands …; assay: solution equilibrium titration, free IgG by ELISA, GraFit; SE 0.52

B1: murine anti-ADDL monoclonal antibody 20C2 (antibody, mouse IgG1, V domains shown)
VH: QVTLKESGPGILKPSQTLSLTCSLSGFSLSTSGMGVGWFRQPSGKGLEWLAHIWWDDDKSYNPSLKSRLTISKYTSRNQVFLTITSVDTADTATYYCARRQLGLRSIDAMDYWGQGTSVTVSS
VL: DVLMTQTPLSLPVSLGDQASISCRSSQSILHSNGNTYLEWYLQKPGQSPKLLIYKVSNRFSGVPDRFSGSGSGTDFTLKISRVEAEDLGVYYCFQGSLVPLTFGAGTKLELK
notes: also called Mouse-20C2
- Kd (biotin-Aβ1-20): 3.4 nM
- Kd (Aβ1-20 peptide [1]): 71.3 nM
- Kd [2]: 4.1 nM
- binding result (Aβ12-28 peptide): no binding (tested: 200 pmol peptide in 200 µL)
- binding result (Aβ1-12 peptide): no binding (tested: 200 pmol peptide in 200 µL)
- Kd [3]: 30.5 nM
- Kd [4]: 0.92 nM
- Kd [5]: 3.62 nM

B2: murine anti-ADDL monoclonal antibody 5F10 (antibody, V domains shown)
VH: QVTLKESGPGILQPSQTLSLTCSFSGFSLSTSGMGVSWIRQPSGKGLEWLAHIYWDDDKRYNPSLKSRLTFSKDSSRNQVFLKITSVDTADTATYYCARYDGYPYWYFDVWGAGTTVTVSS
VL: B1 VL with D1V, I29L, L30V, E39H, Y92F, G96S, S97T, L98H
notes: also called SF10
- Kd [6]: 11.9 nM
- Kd [7]: 28.9 nM
- Kd (Aβ1-20 peptide [8]): 6.1 nM
- Kd [9]: 23.5 nM

B3: murine anti-ADDL monoclonal antibody 2D6 (antibody, mouse IgG1, V domains shown)
VH: QVTLKESGPGILKPSQTLSLTCSFSGFSLSTSGMGVGWIRQPSGKGLEWLAHIWWDDDKYYNPSLKSQLTISKDTSRNQVFLKITSVDTADTATYYCARRSISTVIPEDYFDYWGQGTILTVSS
VL: B1 VL with P12T, L30V, L98H
- Kd (Aβ1-20 peptide [10]): 30.2 nM
- Kd [11]: 14.4 nM
- Kd [12]: 25.7 nM
- Kd [13]: 5.05 nM
